How the values were obtained:
[1] = Activity of YdiF mutant enzymes (evaluation of potential active sites); type: biochemical; settings: studied as in Example 2
Procedure: YdiF mutants were prepared using the relevant primers to introduce the mutated bases via the Quick change lightning kit (Agilent, code product: 210518-5), and cloned into E. coli. In addition, all the proteins used in this experiment have the following extra amino acids added in the N-terminal extremity of the original protein sequence (SEQ ID NO:1): […]. Those additional amino acids correspond to: two amino acids (M and G), a 6×His-tag followed by a 3 amino acids linker (SSG), and a specific proteolytic cleavage site (thrombin site, underlined) (SEQ ID NO: 22). All the sequences were confirmed by DNA sequencing.
(§1) Acetyl-CoA was used at a final concentration of 1.5 mM and 30 mM of the substrate being studied (e.g. carboxylic acid salts, such as sodium acrylate) or 1.5 mM of propionyl-CoA in 50 mM Hepes buffer (pH 7.5). The reaction was started by addition of 0.5 mg/mL of YdiF pure protein or mutants to a final volume of 250 μL and incubated for 1 to 10 hours at 30° C.
(§2) All samples were prepared in triplicate and spun down at 15000 g for 20 min at 4° C. Detection of the thiol product (e.g. acryloyl-CoA) synthesized from CoA-transferase activity and the keto-thiol product (e.g. 3-oxopent-4-enoyl-CoA) due to putative thiolase activity of YdiF (or homologues) was carried out by Liquid Chromatography coupled to a qTof-Mass spectrometry (in positive mode), using a C18 column (Zorbax Eclipse C18, 2.1×50 mm, 1.8μ, Agilent, code product: 959757-902) and a gradient of 10 mM ammonium acetate and acetonitrile as mobile phase.
Mutations were introduced as described in Example 1 at the following positions previously found to be potentially involved in the active site of other β-ketothiolases: C258A, S60A, C112A, S38A, C390A. Activity of the mutant enzymes was studied as described in Example 2.
Mutations were introduced as described in Example 1 to replace the glutamate in position 324 of YdiF (see Selmer et al., 2002) with glycine (mutant E324G) or leucine (E324L). Activity of the mutant enzymes was studied as described in Example 2.

[2] = Screen for dual transferase/ketothiolase activity with acetyl-CoA and sodium acrylate, LC-MS detection; type: biochemical
Procedure: as §1
Two controls were made from similar mixture except that the enzymes were inactivated by heating-up at 95° C. for 20 min or they were replaced by Buffer C.
as §2
YdiF from Clostridium propionicum belongs to the enzymatic class EC2.8.3.8. Other members of this enzyme class with similar structural features to YdiF, as well as proteins with a CoA-transferase activity from close-by enzymatic classes, were screened for dual transferase/ketothiolase activity as described in Example 2. Acetyl-CoA and sodium acrylate were provided as substrates. LC-MS was used to detect the thiol-product (propenoyl-CoA) synthesized via the transferase activity and the ketothiol-product (3-oxopent-4-enoyl-CoA) synthesized via the thiolase activity, as described in Example 2.

[3] = Solubility of the expressed protein (Table 3); settings: protein expressed in E. coli
Procedure: From a fresh LB plate containing the desired clone transformant, one colony (or small scratch) was picked to inoculate 25 mL of LB supplemented with the relevant antibiotic and the pre-culture was incubated overnight at 37° C., 230 rpm. The following morning, the TB auto-induced medium (Merck/Code product: 71491-5) was prepared by mixing 60 g TB/L supplemented with 10 mL Glycerol/L of TB and microwaved during 3+2 minutes at full power. The TB was cooled down before use and splitting it in sterile flasks. Then, the pre-culture incubated overnight in LB was centrifuged and the supernatant discarded. The obtained pellet was resuspended with 5 mL of freshly prepared TB medium and used to inoculate 500 mL of TB dispensed in sterile flasks and supplemented with the appropriate antibiotic. The inoculated medium was incubated at 28° C. for at least 20 h, 230 rpm.
The culture was centrifuged at least at 3000 g/20 min/4° C. and the pellet used immediately or stored at −80′C.
The pellets (fresh or thawed) were resuspended in 10 to 20 mL of Buffer A (50 mM Hepes+150 mM NaCl+40 mM Imidazole+5% Glycerol−pH 7.5). The resuspended cells were then sonicated in ice for, 5 min at 37% Amplitude with 5″ ON and 15″ OFF sonication pulse. The sonicated cells were centrifuged for at least 20 min at 15500 g and 4° C. The supernatant containing the soluble fraction of proteins was recovered, filtered using 0.45 or 0.2 um filters, and used for His-trap protein purification.

B1: E324L: YdiF mutant, leucine for the glutamate in position 324, SEQ ID NO: 4 (protein)
chain: MGHHHHHHSSGLVPRGSMRKVPIITADEAAKLIKDGDTVTTSGFVGNAIPEALDRAVEKRFLETGEPKNITYVYCGSQGNRDGRGAEHFAHEGLLKRYIAGHWATVPALGKMAMENKMEAYNVSQGALCHLFRDIASHKPGVFTKVGIGTFIDPRNGGGKVNDITKEDIVELVEIKGQEYLFYPAFPIHVALIRGTYADESGNITFEKEVAPLEGTSVCQAVKNSGGIVVVQVERVVKAGTLDPRHVKVPGIYVDYVVVADPEDHQQSLDCEYDPALSGEHRRPEVVGEPLPLSAKKVIGRRGAIELEKDVAVNLGVGAPEYVASVADEEGIVDFMTLTALSGAIGGVPAGGVRFGASYNADALIDQGYQFDYYDGGGLDLCYLGLAECDEKGNINVSRFGPRIAGCGGFINITQNTPKVFFCGTFTAGGLKVKIEDGKVIIVQEGKQKKFLKAVEQITFNGDVALANKQQVTYITERCVFLLKEDGLHLSEIAPGIDLQTQILDVMDFAPIIDRDANGQIKLMDAALFAEGLMGLKEMKS
[1]
  transferase activity: only partially abolished

B2: Bdigene 271: Acetate CoA-transferase YdiF from Salmonella enterica subsp. houtenaeserovar, Uniprot V1HBS2, SEQ ID NO: 9 (protein, listed as Salmonella enterica)
chain: MLSTKQFTAQQAVELIQDGDKVILGGFIGAVVPEAIEKAIEDKFLAEGHPCNLGLIFAAGQGDAKEKAINRLAHEGLVSSAIGGHWGLIPGLQRLASEGKITGYNLPQGVICHLLRDSAAGKAGTLTHVGLGTFVDPRIEGGKINAKTTEDIVTYININDVENLLYKKLDANIAILRGTTADTHGNITMEDECLILENLAAAQLVHNQGGKVIVQVKRIVPKGSLDPLQVKIPGIFVDALVVADGEAHMQTFAEAMNENYVGRGEKGIRERKIRPLDVKKVIARRAAMELKKNAIVNYGIGIPEIIAQVADEENVTQELIATVEPGAIGGSPAGGLSFGASAFPEAIITQDQMFDFYDGGGLDQAFLGLAETDAKGDLNVSKFGVKIAGCGGFINITQNAKHVFFCGSFTAGDSDIIVEEGKLIIRRDGQIKKFIKHVQQITFSSDTARKNHKPVLYITERAVFRLAAETIELIEIAPGIDLQHDILDKMEFRPTISPALKEMDKRIFSEALMSLSLK
[2]; 3-oxopent-4-enoyl-CoA via thiolase activity
  ketothiol-product: ✓
[2]; propenoyl-CoA via transferase activity
  thiol-product: ✓

B3: S60A: YdiF (SEQ ID NO: 1) mutant, alanine for serine at position 60, N-terminal His-tag (protein, listed as Clostridium propionicum)
chain: MRKVPIITADEAAKLIKDGDTVTTSGFVGNAIPEALDRAVEKRFLETGEPKNITYVYCGAQGNRDGRGAEHFAHEGLLKRYIAGHWATVPALGKMAMENKMEAYNVSQGALCHLFRDIASHKPGVFTKVGIGTFIDPRNGGGKVNDITKEDIVELVEIKGQEYLFYPAFPIHVALIRGTYADESGNITFEKEVAPLEGTSVCQAVKNSGGIVVVQVERVVKAGTLDPRHVKVPGIYVDYVVVADPEDHQQSLDCEYDPALSGEHRRPEVVGEPLPLSAKKVIGRRGAIELEKDVAVNLGVGAPEYVASVADEEGIVDFMTLTAESGAIGGVPAGGVRFGASYNADALIDQGYQFDYYDGGGLDLCYLGLAECDEKGNINVSRFGPRIAGCGGFINITQNTPKVFFCGTFTAGGLKVKIEDGKVIIVQEGKQKKFLKAVEQITFNGDVALANKQQVTYITERCVFLLKEDGLHLSEIAPGIDLQTQILDVMDFAPIIDRDANGQIKLMDAALFAEGLMGLKEMKS
modifications: N-terminal His-tag
[1]
  thiolase activity: None of the mutations abolished
  transferase activity: None of the mutations abolished

B4: C112A: YdiF (SEQ ID NO: 1) mutant, alanine for cysteine at position 112, N-terminal His-tag (protein, listed as Clostridium propionicum)
chain: MRKVPIITADEAAKLIKDGDTVTTSGFVGNAIPEALDRAVEKRFLETGEPKNITYVYCGSQGNRDGRGAEHFAHEGLLKRYIAGHWATVPALGKMAMENKMEAYNVSQGALAHLFRDIASHKPGVFTKVGIGTFIDPRNGGGKVNDITKEDIVELVEIKGQEYLFYPAFPIHVALIRGTYADESGNITFEKEVAPLEGTSVCQAVKNSGGIVVVQVERVVKAGTLDPRHVKVPGIYVDYVVVADPEDHQQSLDCEYDPALSGEHRRPEVVGEPLPLSAKKVIGRRGAIELEKDVAVNLGVGAPEYVASVADEEGIVDFMTLTAESGAIGGVPAGGVRFGASYNADALIDQGYQFDYYDGGGLDLCYLGLAECDEKGNINVSRFGPRIAGCGGFINITQNTPKVFFCGTFTAGGLKVKIEDGKVIIVQEGKQKKFLKAVEQITFNGDVALANKQQVTYITERCVFLLKEDGLHLSEIAPGIDLQTQILDVMDFAPIIDRDANGQIKLMDAALFAEGLMGLKEMKS
modifications: N-terminal His-tag
[1]
  thiolase activity: None of the mutations abolished
  transferase activity: None of the mutations abolished

B5: C390A: YdiF (SEQ ID NO: 1) mutant, alanine for cysteine at position 390, N-terminal His-tag (protein, listed as Clostridium propionicum)
chain: MRKVPIITADEAAKLIKDGDTVTTSGFVGNAIPEALDRAVEKRFLETGEPKNITYVYCGSQGNRDGRGAEHFAHEGLLKRYIAGHWATVPALGKMAMENKMEAYNVSQGALCHLFRDIASHKPGVFTKVGIGTFIDPRNGGGKVNDITKEDIVELVEIKGQEYLFYPAFPIHVALIRGTYADESGNITFEKEVAPLEGTSVCQAVKNSGGIVVVQVERVVKAGTLDPRHVKVPGIYVDYVVVADPEDHQQSLDCEYDPALSGEHRRPEVVGEPLPLSAKKVIGRRGAIELEKDVAVNLGVGAPEYVASVADEEGIVDFMTLTAESGAIGGVPAGGVRFGASYNADALIDQGYQFDYYDGGGLDLCYLGLAECDEKGNINVSRFGPRIAGAGGFINITQNTPKVFFCGTFTAGGLKVKIEDGKVIIVQEGKQKKFLKAVEQITFNGDVALANKQQVTYITERCVFLLKEDGLHLSEIAPGIDLQTQILDVMDFAPIIDRDANGQIKLMDAALFAEGLMGLKEMKS
modifications: N-terminal His-tag
[1]
  thiolase activity: None of the mutations abolished
  transferase activity: None of the mutations abolished

B6: Bdigene 275: Acetyl-CoA acetyltransferase from Dyadobacter fermentans, Uniprot C6VTZ3, SEQ ID NO: 8 (protein)
chain: MNAYIVAGYRTAVGKAPRGGFRFTRPDDLGAAVIKHLLEKTPQLDPTRVDDVIVGNAVPEAEQGMQMGRYVALLSLPKNVSGITINRYCGSGVEAIAMASAKIHAGMAECIIAGGTESMSLVPTMGWKTALNYEIAHTNPDYYLSMGLTAEQVAQDFKISREAQDNFSFQSHQKALRAQKEGWFAEGIVPVTVKETYFDQASGKKKTKETVISQDEGPRADTTLEALNKLKPVFAAGGSVTAGNSSQTSDGAAFVLVMSERLVNELGLKPIARMMSYATAGVDPRVMGIGPVAAVPLALKQAGLQLKDIQQVELNEAFAAQSLAVIQELGIDPEIVNPNGGAIALGHALGSTGARLSVQLFNEMKRRDQKYGMVTACVGGGQGVAGIYERLN
modifications: Dyadobacter fermentans
[3]
  Solubility: ✓

B7: Bdigene 0343: E-cinnamoyl-CoA: R-phenyilactate CoA transferase from Clostridium sporogenes, Uniprot Q93AM1 (protein, UniProt Q93AM1 1-412, looked up)
Cinnamoyl-CoA:phenyllactate …: MENNTNMFSGVKVIELANFIAAPAAGRFFADGGAEVIKIESPAGDPLRYTAPSEGRPLSQEENTTYDLENANKKAIVLNLKSEKGKKILHEMLAEADILLTNWRTKALVKQGLDYETLKEKYPKLVFAQITGYGEKGPDKDLPGFDYTAFFARGGVSGTLYEKGTVPPNVVPGLGDHQAGMFLAAGMAGALYKAKTTGQGDKVTVSLMHSAMYGLGIMIQAAQYKDHGLVYPINRNETPNPFIVSYKSKDDYFVQVCMPPYDVFYDRFMTALGREDLVGDERYNKIENLKDGRAKEVYSIIEQQMVTKTKDEWDNIFRDADIPFAIAQTWEDLLEDEQAWANDYLYKMKYPTGNERALVRLPVFFKEAGLPEYNQSPQIAENTVEVLKEMGYTEQEIEELEKDKDIMVRKEK
[3]
  Solubility: ✓

From patent US10570379B2, “Polypeptides for carbon-carbon bond formation and uses thereof” (INVISTA North America S.à.r.l., priority 2015, dated 2020)
